Test: soluble on expression in E. coli; label from the status in PepcDB or PDB records
With “MFKKLFGLGSKTNEETIVAPLTGAVKNIEEVPDPVFAGRMMGDGVAIDPTEGVVVSPVDGEIVQLFHTKHAIGIKAKNGTEILIHVGLETVKMEGEGFEAHVSEGQAVKAGDKLISFDLELIREKAKSTITPIVITNTDAAESIKTTVGVTATKGSTEVMKVTMK” the “soluble on expression in E. coli” value was “not soluble”. In the case of “MFLDRERELQFLERRYEMGGPEFIVIYGRRRVGKTALLLEFISRHGGIYLLARETSNLENLKRFSDRLSEYFGDDFLKRNPFQNWDAFLEYLNQKATERLVVVIDEFPYLVKGDRSLPSILQEYWDLKLSNGRIFLIICGSSISMMEKLLGYKSPIYGRRTGQINLKPVDFLHAREFLPGYSLEDFIKAYGILGGSPAHLLEFDDSKTIKENLLEYLRSDSLLYQDAFFVLREELEEPRNYFAIMEAVAAGKTSLGEIMNETGLSRATVAKYLSVLIELDFVKREIPITASRKSRRGRYYIKDNYFAFWFRYIHPNIDFIESERRKELLELIIDDLPNYLGGIFENVAIEFLPLISNKLPFKPLKIGRWWHKNEEIDLVAFNEKEEKAILIEVKWKTLNKIEANKILKDLNRKSKILKMKEWEQYHGIIAKRVKDKEKIKGGLIWDLEDIENLKFSPELEHHHHHH”, the “soluble on expression in E. coli” value is reported as “not soluble”. In the case of “MFLKVRAEKRLGNFRLNVDFEMGRDYCVLLGPTGAGKSVFLELIAGIVKPDRGEVRLNGADITPLPPERRGIGFVPQDYALFPHLSVYRNIAYGLRNVERVERDRRVREMAEKLGIAHLLDRKPARLSGGERQRVALARALVIQPRLLLLDEPLSAVDLKTKGVLMEELRFVQREFDVPILHVTHDLIEAAMLADEVAVMLNGRIVEKGKLKELFSAKNGEVAEFLSARNLLLKVSKILD”, the “soluble on expression in E. coli” value is reported as “soluble”. For “MFLLKQIGVIRSPFKSPSECPFQGRFSQERFTIELFPEYEEGLKDIETCTHLIVLYWLDRANRDRLIAIPPFDKREHGVFATRSPHRPNPIGFSVVKLLEVRGRELVVEGLDAVDGTPVVDIKPYSSKIDCVENARIGWFEEV”, the “soluble on expression in E. coli” value was “soluble”. In the case of “MFMIKVITPETNHPKEGGILSALVSIYNCTIHIRKPRFTADQYKKYLHDHNQLLSHFVLHEHHSLAKEFPVMGVHLKELDRINPAQVHPDIKIISTSIHSIADAGNLSHPFEYIFYSPLFQSISKENYGTNNSLADLKKTVSELKEQTGIPIIGLGGIYEANIDLVKKSGFDGAALLGAVWVQSDPLAAFGRIASMILEHHHHHH”, the “soluble on expression in E. coli” value is reported as “not soluble”. For “MFNCLTKLVILVCLKYVAKALLNRSTGLIMKDKPEGVHHIKSCSDSSSRIWYSLWMNIAFCGGLGPTSIFDPCFLTSSAPSPPSAPALAIPAAAPPLPTSVPAGAGVEAGAGAETVSSSLMIFSSFFLYN”, the “soluble on expression in E. coli” value was “soluble”. With “MFNYSGLNEECGVFGIWNHPEAAQLTYMGLHSLQHRGQEGAGIVVSDQNELKGERGLGLLTEAIKDDQMERLKGYQHAIGHVRYATSGNKGIENIQPFLYHFYDMSVGICHNGNLINAKSLRQNLEKQGAIFHSSSDTEVIMHLIRRSKAPTFEEALKESLRKVKGGFTFAILTKDALYGAVDPNAIRPLVVGKMKDGTYILASETCAIDVLGAEFVQDIHAGEYVVINDKGITVKSYTHHTTTAISAMEYIYFARPDSTIAGKNVHAVRKASGKKLAQESPVNADMVIGVPNSSLSAASGYAEEIGLPYEMGLVKNQYVARTFIQPTQELREQGVRVKLSAVKDIVDGKNIILVDDSIVRGTTIRRIVKMLKDSGANKVHVRIASPEFMFPSFYGIDVSTTAELISASKSPEEIKDYIGADSLAYLSVDGLIESIGLDYDAPYSGLCVESFTGDYPAGLYDYEANYKAHLSHRQKQYISKNKHFFDSEGNLNV” the “soluble on expression in E. coli” value was “not soluble”. In the case of “MFPMNYSLIDLSAIECPESDLFIEGVVLAANLATRPLDPEQWLPELFTEQHQALLQPVTEQIHRQYQLLKGNGYDLLALLAEHAPSRKQGLADFAEGFMQLWPQVEPMWQQGAFADGSIRMLQALLTTLMLAIDEAQTQAQMREAGYEQVPALADLIEQLNLMVHEVALAADEAMLGAKAQSVNPFKGIGRNDACPCDSGKKFKQCCGQ”, the “soluble on expression in E. coli” value is reported as “not soluble”. With “MFQLSVQDIHPGEQAGNKEEAIRQIAAALAQAGNVAGGYVDGMLAREQQTSTFLGNGIAIPHGTTDTRDQVLKTGVQVFQFPQGVTWGEGQVAYVAIGIAASSDEHLGLLRQLTHVLSDDSVAEQLKSATTAEELRALLMGEKQSEQLKLDNETMTLDVIASSLVTLQALNAARLKEAGAVDAAFVAKTINDSPMNLGQGIWLNDSAEGNLRSAVAVSRATQAFDVEGEKAALLVTVAMNDEQPIAVLKRLGDLLLNNKADRLLSADAATLLALLTSDDALTDDVLSAEFVVRNEHGLHARPGTMLVNTIKQFNSEITVTNLDGTGKPANGRSLMKVVALGVKKGHRLRFTAQGEDAEQALKAIGDAIAAGLGEGA” the “soluble on expression in E. coli” value was “not soluble”.
